According to patent US20200199647A1 (published 2020):

Assays:
[1] = target: T1, PP1c (human PP1cα amino acids 7-330, N-terminal Thio6/His6 tag) (human, UniProt P62136 7-330); assay: thermophoresis (MST), labelled PP1c
T1 construct: range 7-330; Recombinant, from E. coli with GroEL/GroES and MnCl2; In thermophoresis it was labelled with the Monolith NT Red-NHS kit; also called protein phosphatase 1c; Thio6/His6-PP1c

[2] = target: T1, PP1c (human PP1cα amino acids 7-330, …); assay: thermophoresis, labelled PP1c, unlabelled fragment titrated

T1 sequence (P62136 other isoform, or with tags, fused parts or gaps): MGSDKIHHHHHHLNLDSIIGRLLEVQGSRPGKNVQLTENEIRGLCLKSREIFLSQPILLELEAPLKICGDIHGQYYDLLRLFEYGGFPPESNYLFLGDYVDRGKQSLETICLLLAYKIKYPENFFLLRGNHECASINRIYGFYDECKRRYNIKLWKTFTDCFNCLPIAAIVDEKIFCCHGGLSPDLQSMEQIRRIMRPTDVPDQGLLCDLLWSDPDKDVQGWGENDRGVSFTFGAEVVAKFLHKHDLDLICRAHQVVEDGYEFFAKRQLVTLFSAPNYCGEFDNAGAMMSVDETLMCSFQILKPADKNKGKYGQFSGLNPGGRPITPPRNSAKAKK

| Binder | binding result [1] | binding result [2] |
| --- | --- | --- |
| R15B^C (human PPP1R15B amino acids 636-698, N-terminal MBP-tag, C-terminal His6-tag) (other, not shown: large carriers, range 636-698; also called R15B^636-698; carboxy-terminal fragment of R15B) VKRKKVTFLEEVTEYYISGDEDRKGPWEEFARDGCRFQKRIQETEDAIGYCLTFEHRERMFNRHHHHHH | binds | – |
| R15B^N (human PPP1R15B amino acids 340-635, N-terminal MBP-tag, C-terminal His6-tag) (other, not shown: large carriers, range 340-635; also called R15B^340-635; amino-terminal fragment of R15B) RDNPTQFVPAAGDIPGNTQESTEEKIELLTTEVPLALEEESPSEGCPSSEIPMEKEPGEGRISVVDYSYLEGDLPISARPACSNKLIDYILGGASSDLETSSDPEGEDWDEEAEDDGFDSDSSLSDSDLEQDPEGLHLWNSFCSVDPYNPQNFTATIQTAARIVPEEPSDSEKDLSGKSDLENSSQSGSLPETPEHSSGEEDDWESSADEAESLKLWNSFCNSDDPYNPLNFKAPFQTSGENEKGCRDSKTPSESIVAISECHTLLSCKVQLLGSQESECPDSVQRDVLSGGRHTHHHHHHH | – | no binding |
